Values of other authors, collected in patent publication US20200085776A1, “Methods of Reducing C-Reactive Protein and/or Treating Cardiovascular Disease” (CARDAX, INC., priority 2018, published 2020).

Key:
cardiovascular events = settings: 15-20 mg/week vs. placebo; cited from earlier work
IL-1β = target: T1, IL-1β (Homo sapiens, UniProt P01584); settings: cited from earlier work
T1 construct: host or cells: human trial patients (endogenous IL-1β)

vascular events = settings: 20 mg/D; patients who achieved a reduction in CRP<2.0; cited from earlier work
[1] = subjects with a reduction of CRP<2.0 mg/L, regardless of dose

## CN(Cc1cnc2nc(N)nc(N)c2n1)c1ccc(C(=O)N[C@@H](CCC(=O)O)C(=O)O)cc1 [methotrexate]
Cardiovascular events
  cardiovascular events compared to placebo: did not result in fewer cardiovascular events
  effect on levels of IL-1β, IL-6, CRP: did not reduce levels of IL-1β, IL-6, or CRP

## canakinumab: monoclonal antibody that targets IL-1β (printed IL-113)
IL-1β; active treatment groups, mostly tuberculosis
  deaths from infection: more deaths from infection
IL-1β; patients with active treatment
  effect on CRP, IL-6 and lipids: a reduction in CRP and IL-6, with no change in lipids
IL-1β; [1]
  reduction in cardiovascular death and all-cause mortality: 31%
  reduction in the primary end point (composite of myocardial infarction, stroke, or cardiovascular death): 25%

## CC(C)c1nc(N(C)S(C)(=O)=O)nc(-c2ccc(F)cc2)c1/C=C/[C@@H](O)C[C@@H](O)CC(=O)O [rosuvastatin]
Vascular events
  reduction in vascular events: 62%
